Experimental findings from patent US20110081661A1, “Modified photoproteins with increased affinity for calcium and enhanced bioluminescence and uses thereof” (Millipore Corporation, priority 2009, published 2011) are described below.

Assay [1] has as its target GIP (gastric inhibitory polypeptide) receptor (UniProt P48546). The assay can be described thus: cell-based or functional assay.
A short description of assay [2]: Calcium affinity of mitochondrial photoproteins, transient co-transfection with H1 histamine receptor in HEK293T cells (FIG. 2). It is filed as cell-based. Conditions: HEK293T cells co-transfected with H1 histamine receptor; Triton X-100, free calcium 17 nM to 39.6 μM; total bioluminescence at 20 seconds; read-out: EC50 value (affinity for Ca^2+). The text has this:
Following the generation of modified forms of Clytin, the various variants were compared with wt-Aequorin for their affinity for intracellular calcium in transient transfection assays using co-transfection with the H1 histamine receptor (Genbank Accession No. NM_000861, obtained by PCR using H1-specific primers from a human brain cDNA library, forward primer 5′-[…] ATTCCTC-3′ (SEQ ID NO:60), reverse primer 5′-[…] AATTCTC-3′ (SEQ ID NO:61).
(§1) In an exemplary experiment, HEK293T cells (ATCC-CRL-11268) were transiently co-transfected with 2 μgs of each of pcDNA3.1-H1 (containing the cDNA encoding the H1 histamine receptor) and pcDNA3.1 containing the cDNAs encoding wild type mitochondrial Clytin (referred to as mt-Clytin), modified mitochondrial Clytin having a lysine to aspartic acid mutation at position 168 (referred to as mt-Clytin K168D), modified mitochondrial Clytin having a lysine to glutamic acid mutation at position 168 (referred to as mt-Clytin K168E), wild-type mitochondrial Obelin (referred to as mt-Obelin) or wild type mitochondrial Aequorin (referred to as mt-Aequorin) using the Targefect-293 reagent (TARGETING SYSTEMS). 48 hours later, the cells were detached using Accutase (MILLIPORE), centrifuged, and resuspended in […] in FreeStyle293 media (INVITROGEN), for incubation for 3-4 hours at room temperature in the dark. After incubation, the cells were centrifuged and resuspended in HBSS/HEPES buffer without Ca^2+ at a density of 1×10^6 cells/ml. Next, 100 μl/well of cell suspension for each transfection were added by the use of a Victor2 luminometer plate reader (WALLAC, […]), to a 96-well plate containing 50 μL/well Triton X-100 in MOPS/KCl buffer containing 10 mM EGTA and a series of Ca^2+ concentrations, such that free calcium concentrations ranged from 17 nM to 39.6 μM, followed by for measurement of total bioluminescence at 20 seconds.

Assay [3] in a line: Calcium EC50 of mitochondrially targeted photoproteins in HEK293T cells without cotransfected GPCR or G protein (Table II). It is filed as cell-based. The note with it: no cotransfected GPCR or G protein.
Text: as §1
(§2) Signal to background ratio was calculated as the signal induced by maximal GIP (1 μM) divided by the signal induced by buffer alone. The EC50 value for calcium was determined as described above for FIG. 2 for mitochondrially targeted photoproteins transfected into HEK293T cells in the absence of a cotransfected GPCR or G protein. Affinity for calcium was correlated with the properties of the amino acid side chain at residue 168 of Clytin.

Another assay concerns the target T1, GIP Receptor (Homo sapiens, UniProt P48546).
T1 construct: host or cells: HEK293T
T1 sequence (P48546 22-466): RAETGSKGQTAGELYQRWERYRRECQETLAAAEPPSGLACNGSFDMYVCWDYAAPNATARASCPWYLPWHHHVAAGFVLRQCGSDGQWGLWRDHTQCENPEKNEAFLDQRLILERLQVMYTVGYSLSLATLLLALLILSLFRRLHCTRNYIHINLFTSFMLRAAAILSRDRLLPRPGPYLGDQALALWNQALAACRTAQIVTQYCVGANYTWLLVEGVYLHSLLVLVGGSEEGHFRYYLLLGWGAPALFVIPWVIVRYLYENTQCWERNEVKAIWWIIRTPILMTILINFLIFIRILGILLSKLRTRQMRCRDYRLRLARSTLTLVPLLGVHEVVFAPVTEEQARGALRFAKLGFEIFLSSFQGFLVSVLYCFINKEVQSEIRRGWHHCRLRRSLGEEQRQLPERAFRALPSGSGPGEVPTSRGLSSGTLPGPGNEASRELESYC
The assay can be described thus: GIP receptor-mediated bioluminescence in HEK293T cells with chimeric promiscuous G protein (FIG. 5, Table II). The class given is cell-based. Conditions: for Max signal with GIP (RLU × 10^−5) / EC50: HEK293T cells, GIP Receptor + promiscuous G protein; for EC50: luminescence vs GIP concentration; for % GPCR/total: signal induced by maximal GIP (1 μM) as percentage of signal induced by Triton X-100 with 1 mM Ca^2+; for Signal: background with GIP: signal induced by maximal GIP (1 μM) divided by signal induced by buffer alone. The protocol:
However, coexpression of GIP receptor with a chimeric G protein containing sequences from Gαs and Gαq enable the GIP receptor to stimulate calcium flux.
The results of the dose response curve to varying concentrations of GIP with a subset of the photoproteins are summarized in FIG. 5.
as §2
The EC50 value for receptor-mediated calcium flux induced by the ligand was determined by plotting luminescence (Y-axis) versus ligand concentration applied to the cells (X-axis), and applying a sigmoidal dose-response curve-fitting algorithm (GraphPad Prism). GPCR-mediated signals of the various modified forms of Clytin having an amino acid substitution at position 168 were also related to the nature of the side chain. In addition, the subcellular location of the photoproteins (cytosolic vs mitochondrial) appeared to have an effect on GPCR-mediated signals. […] All of the other mitochondrially targeted mutants except for Clytin K168R and wild-type Clytin yielded results that were in the range of those observed for wt-Aequorin.

The next assay deals with T2, H1 histamine receptor (Homo sapiens, UniProt P35367).
T2 construct: expressed in transfected cells; host or cells: U-2OS
T2 sequence (P35367 whole entry): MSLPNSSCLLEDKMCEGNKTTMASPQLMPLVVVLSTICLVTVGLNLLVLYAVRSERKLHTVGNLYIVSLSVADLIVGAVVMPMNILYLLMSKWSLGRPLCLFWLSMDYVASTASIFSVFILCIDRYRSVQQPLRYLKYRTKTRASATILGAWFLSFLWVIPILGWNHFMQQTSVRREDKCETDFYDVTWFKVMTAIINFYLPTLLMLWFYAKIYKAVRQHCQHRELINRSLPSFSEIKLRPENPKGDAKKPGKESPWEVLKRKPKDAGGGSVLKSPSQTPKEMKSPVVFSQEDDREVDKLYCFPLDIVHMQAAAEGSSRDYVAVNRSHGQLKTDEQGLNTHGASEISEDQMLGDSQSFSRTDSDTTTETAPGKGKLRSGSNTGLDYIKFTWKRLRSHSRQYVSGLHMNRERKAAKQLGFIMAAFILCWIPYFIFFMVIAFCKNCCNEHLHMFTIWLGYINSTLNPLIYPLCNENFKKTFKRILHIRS
The assay can be described thus: GPCR-mediated versus total bioluminescence in U-2OS cells (FIG. 4). It is filed as cell-based. The note with it: 10 μM histamine vs Triton X-100 with 1 mM calcium. As for the experimental part: In another experiment, the ability of the various photoproteins to detect calcium flux in live cells was assessed by adding varying concentrations of histamine to cells in order to activate the H1 histamine receptor followed by measurement of bioluminescence of the various photoproteins. U-2OS cells were transfected with a cDNA encoding H1 histamine receptor along with a cDNA encoding either a wild-type photoprotein or a modified photoprotein according to the invention, as described above in Example 2, except that Lipofectamine-2000 (INVITROGEN) was used as the transfection reagent. On the second day, the cells were trypsinized, counted, and plated in a white tissue-culture treated 96-well plate (COSTAR) at a density of about 50,000 cells/well in growth media consisting of DMEM containing 10% fetal bovine serum, non-essential amino acids, HEPES and penicillin/streptomycin. On the third day, the medium was removed and cells were washed once with 200 μl/well of HBSS/HEPES (containing Ca^2+). Cells were subsequently incubated with 5 μM coelenterazine in HBSS/HEPES (containing Ca^2+) in a volume of 200 μl/well, for 3-4 hours at room temperature in the dark. After incubation, the coelenterazine solution was removed and cells were washed and replaced with HBSS/HEPES buffer containing both Ca^2+ and Mg^2+. 50 μl/well of histamine at varying concentrations in HBSS/HEPES containing both Ca^2+ and Mg^2+ was added to the cells and total bioluminescence was measured at 20 seconds using a Victor2 luminometer.
In an exemplary experiment, U-2OS cells were transfected, plated and loaded with coelenterazine as described in Example 3. Luminescence induced by buffer alone or by 10 μM histamine was measured also as described in Example 3. Additionally, luminescence induced by addition of Triton X-100 in the presence of 1 mM calcium was also determined in order to assess the total amount of active photoprotein detectable using saturating calcium concentrations in cells.

Turning to “GIP (gastric inhibitory polypeptide) ligand (from UniProt P09681 52-93)”, in assay [1], the EC50 for GIP (nM); receptor-mediated calcium flux luminescence in HEK293T cells, reporter Cyto-aequorin amounted to 6.67 nM; the EC50 for GIP (nM); receptor-mediated calcium flux luminescence in HEK293T cells, reporter Cyto-clytin K168D amounted to 4.01 nM; the EC50 for GIP (nM); receptor-mediated calcium flux luminescence in HEK293T cells, reporter Cyto-clytin K168E turned out to be 7.9 nM; the EC50 for GIP (nM); receptor-mediated calcium flux luminescence in HEK293T cells, reporter Cyto-clytin wt amounted to 9.67 nM. Further, in assay [1], the EC50 for GIP (nM); receptor-mediated calcium flux luminescence in HEK293T cells, reporter Cyto-obelin is 9.86 nM; the EC50 for GIP (nM); receptor-mediated calcium flux luminescence in HEK293T cells, reporter Mt-aequorin was found to be 11.3 nM; the EC50 for GIP (nM); receptor-mediated calcium flux luminescence in HEK293T cells, reporter Mt-clytin K168D turned out to be 9.1 nM; the EC50 for GIP (nM); receptor-mediated calcium flux luminescence in HEK293T cells, reporter Mt-clytin K168E amounted to 21.6 nM. In assay [1], the EC50 for GIP (nM); receptor-mediated calcium flux luminescence in HEK293T cells, reporter Mt-clytin K168G came to 15.1 nM; the EC50 for GIP (nM); receptor-mediated calcium flux luminescence in HEK293T cells, reporter Mt-clytin K168H was determined as 19.2 nM; the EC50 for GIP (nM); receptor-mediated calcium flux luminescence in HEK293T cells, reporter Mt-clytin K168N worked out at 21 nM; the EC50 for GIP (nM); receptor-mediated calcium flux luminescence in HEK293T cells, reporter Mt-clytin K168Q is 17.4 nM. Besides, in assay [1], the EC50 for GIP (nM); receptor-mediated calcium flux luminescence in HEK293T cells, reporter Mt-clytin K168R stood at 29.1 nM; the EC50 for GIP (nM); receptor-mediated calcium flux luminescence in HEK293T cells, reporter Mt-clytin K168S came out at 15.4 nM; the EC50 for GIP (nM); receptor-mediated calcium flux luminescence in HEK293T cells, reporter Mt-clytin K168T was 13.4 nM; the EC50 for GIP (nM); receptor-mediated calcium flux luminescence in HEK293T cells, reporter Mt-clytin K168V is 16.8 nM. For the same molecule, in assay [1], the EC50 for GIP (nM); receptor-mediated calcium flux luminescence in HEK293T cells, reporter Mt-clytin K168Y turned out to be 16.4 nM; the EC50 for GIP (nM); receptor-mediated calcium flux luminescence in HEK293T cells, reporter Mt-clytin wt amounted to 12.9 nM; the EC50 for GIP (nM); receptor-mediated calcium flux luminescence in HEK293T cells, reporter Mt-obelin was determined as 13.7 nM.

B1: Mt-clytin K168E: Mitochondrial K168E modified Clytin, SEQ ID NO:12 (protein)
chain: MSVLTPLLLRGLTGSARRLPVPRAKIHSLPPEGKLRPNFDNPKWVNRHKFMFNFLDINGDGKITLDEIVSKASDDICAKLGATPEQTKRHQDAVEAFFKKIGMDYGKEVEFPAFVDGWKELANYDLKLWSQNKKSLIRDWGEAVFDIFDKDGSGSISLDEWKAYGRISGICSSDEDAEKTFKHCDLDNSGELDVDEMTRQHLGFWYTLDPNADGLYGNFVP
As a reminder, the EC50 is the midpoint of the concentration-response curve. For B1, in assay [2], the EC50 was 173 nM. Also, the EC50 in assay [3] worked out at 176 nM. Also, in the assay with GIP Receptor, the “Max signal with GIP (RLU × 10^−5)” value is reported as 6.07 RLU × 10^−5, the EC50 turned out to be 21.6 nM, the “% GPCR/total” value is 19.8% and the “Signal: background with GIP” value is listed as 120.8.

B2: Mt-obelin: Mitochondrial Wild-type Obelin (mt-Obelin), SEQ ID NO:7 (protein, listed as Obelia longissima)
chain: MSVLTPLLLRGLTGSARRLPVPRAKIHSLPPEGKLMSSKYAVKLKTDFDNPRWIKRHKHMFDFLDINGNGKITLDEIVSKASDDICAKLEATPEQTKRHQVCVEAFFRGCGMEYGKEIAFPQFLDGWKQLATSELKKWARNEPTLIREWGDAVFDIFDKDGSGTITLDEWKAYGKISGISPSQEDCEATFRHCDLDNSGDLDVDEMTRQHLGFWYTLDPEADGLYGNGVP
Consider B2, for which the EC50 in assay [3] stood at 373 nM. Moreover, in the assay with GIP Receptor, the “Max signal with GIP (RLU × 10^−5)” value turned out to be 3.66 RLU × 10^−5, the EC50 was determined as 13.7 nM, the “% GPCR/total” value is 116% and the “Signal: background with GIP” value is recorded as 172.5.

B3: Cyto-clytin wt: Wild type Clytin (wt-Clytin) amino acid sequence, SEQ ID NO:1; cytosolic (protein, listed as Clytia gregaria)
chain: MADTASKYAVKLRPNFDNPKWVNRHKFMFNFLDINGDGKITLDEIVSKASDDICAKLGATPEQTKRHQDAVEAFFKKIGMDYGKEVEFPAFVDGWKELANYDLKLWSQNKKSLIRDWGEAVFDIFDKDGSGSISLDEWKAYGRISGICSSDEDAEKTFKHCDLDNSGKLDVDEMTRQHLGFWYTLDPNADGLYGNFVP
On to B3, for which the “GPCR-mediated signal as % of the total signal” value in the assay with H1 histamine receptor is ~3%. Further, in the assay with GIP Receptor, the “Max signal with GIP (RLU × 10^−5)” value is 0.2 RLU × 10^−5, the EC50 was determined as 9.67 nM, the “% GPCR/total” value was found to be 0.3% and the “Signal: background with GIP” value amounted to 7.0.
